Biological target: Recombinant Cx43CT (carboxyl terminal domain of rat connexin43, residues 255-382, preceded by GPLG) (rat) (UniProt P08050)
Test: SPR on the carboxyl terminal domain of Cx43, peptide at 1.0 mM

Chain of Recombinant Cx43CT (carboxyl terminal domain of rat connexin43, residues 255-382, preceded by GPLG) (rat) (P08050 other isoform, or with tags, fused parts or gaps limits assumed): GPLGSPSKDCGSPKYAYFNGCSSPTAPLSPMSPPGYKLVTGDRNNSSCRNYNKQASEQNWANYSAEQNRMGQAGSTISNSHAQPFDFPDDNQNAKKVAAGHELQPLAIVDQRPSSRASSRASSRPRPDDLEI

Response (arbitrary units): 4.6
Substance: AcRNP-NH2 (Identification No. 2502) (peptide)
